Reference: patent US20040161776A1
Several values for one entry are separate records, joined by “and”; a condition that tells them apart may be missing. Equal entries are not always repeated. Values belong to the substance of their own block, whether it stands above or below them.

How the values were obtained:
[1] = target: prostate specific membrane antigen (PSMA), full-length human (human) (UniProt Q04609); test: fraction of 177Lu labeled antibody bound to cells, column PSMA; column 3T3 (no PSMA): 1.7
[2] = target: prostate specific membrane antigen (PSMA), full-length human (human) (UniProt Q04609)
[3] = target: prostate specific membrane antigen (PSMA), full-length human (human) (UniProt Q04609); test: average, PSMA-3T3 cells
[4] = target: prostate specific membrane antigen (PSMA), full-length human (human) (UniProt Q04609); test: radiolabeled mAb bound to PSMA-3T3 cell pellets
[5] = target: prostate specific membrane antigen (PSMA), full-length human (human) (UniProt Q04609); test: competition on PSMA-3T3 cells; unmodified mJ591 varied, competitor 111In radiolabeled 4.40
[6] = target: prostate specific membrane antigen (PSMA), full-length human (human) (UniProt Q04609); test: fraction of 177Lu labeled control antibody bound to cells, column PSMA; column 3T3 (no PSMA): 0.7

Chain of prostate specific membrane antigen (PSMA), full-length human (human) (Q04609 whole entry): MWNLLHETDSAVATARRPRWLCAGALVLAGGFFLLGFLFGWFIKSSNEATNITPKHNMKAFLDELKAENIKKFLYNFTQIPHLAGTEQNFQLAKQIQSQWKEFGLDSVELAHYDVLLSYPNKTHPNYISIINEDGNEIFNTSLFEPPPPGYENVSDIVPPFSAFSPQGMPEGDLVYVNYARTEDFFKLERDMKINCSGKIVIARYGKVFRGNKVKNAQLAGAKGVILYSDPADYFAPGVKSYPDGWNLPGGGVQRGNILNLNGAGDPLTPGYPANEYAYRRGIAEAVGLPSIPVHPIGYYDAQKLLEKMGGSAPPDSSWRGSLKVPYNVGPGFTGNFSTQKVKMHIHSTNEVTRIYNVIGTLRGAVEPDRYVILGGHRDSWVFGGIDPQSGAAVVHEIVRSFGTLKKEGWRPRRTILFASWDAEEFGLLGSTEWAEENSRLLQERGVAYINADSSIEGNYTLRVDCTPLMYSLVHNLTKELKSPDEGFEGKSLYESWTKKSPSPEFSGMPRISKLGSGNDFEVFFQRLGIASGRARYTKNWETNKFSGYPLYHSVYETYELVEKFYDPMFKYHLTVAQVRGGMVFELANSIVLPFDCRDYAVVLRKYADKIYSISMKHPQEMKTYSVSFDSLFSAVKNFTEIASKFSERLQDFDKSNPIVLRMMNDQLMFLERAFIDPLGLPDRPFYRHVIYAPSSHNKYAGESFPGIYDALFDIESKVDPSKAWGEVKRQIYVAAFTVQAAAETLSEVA
Chain of mJ591 (antibody) (VH): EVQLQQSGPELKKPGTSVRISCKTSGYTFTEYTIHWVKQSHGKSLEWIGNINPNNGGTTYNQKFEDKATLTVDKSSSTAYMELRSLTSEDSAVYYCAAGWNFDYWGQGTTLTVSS
Chain of mJ591 (antibody) (VL): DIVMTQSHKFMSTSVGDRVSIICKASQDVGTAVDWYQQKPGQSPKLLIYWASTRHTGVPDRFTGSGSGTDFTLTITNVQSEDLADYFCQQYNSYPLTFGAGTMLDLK

- Cell Based Immunoreactivity (%) [1]: 46.2%
- PSMA+/PSMA- Ratio of tumor uptake, Mean [2]: 2.5
Substance: mJ591 (antibody)

- Immunoreactivity (%) [3]: 56.7%
- Immunoreactivity (%) [4]: 58.5% and 54.9%
Substance: 111In radiolabeled CHX-A''-DTPA antibody mJ591

- IC50 (read off the curve) [5]: 3 nM
Substance: mAb J591 (murine) (antibody)

- Cell Based Immunoreactivity (%) [6]: 5.9%
- PSMA+/PSMA- Ratio of tumor uptake, Mean [2]: 1.16
Substance: IgG (antibody)
